{
  "source": "patent US20130345135A1",
  "about": "(WISCONSIN ALUMNI RESEARCH FOUNDATION, published 2013)",
  "target": "myosin in murine skinned myocardium (principal isoform alpha-cardiac myosin) (mouse, UniProt Q02566 1-1938)",
  "sequence (Q02566 whole entry, canonical isoform)": "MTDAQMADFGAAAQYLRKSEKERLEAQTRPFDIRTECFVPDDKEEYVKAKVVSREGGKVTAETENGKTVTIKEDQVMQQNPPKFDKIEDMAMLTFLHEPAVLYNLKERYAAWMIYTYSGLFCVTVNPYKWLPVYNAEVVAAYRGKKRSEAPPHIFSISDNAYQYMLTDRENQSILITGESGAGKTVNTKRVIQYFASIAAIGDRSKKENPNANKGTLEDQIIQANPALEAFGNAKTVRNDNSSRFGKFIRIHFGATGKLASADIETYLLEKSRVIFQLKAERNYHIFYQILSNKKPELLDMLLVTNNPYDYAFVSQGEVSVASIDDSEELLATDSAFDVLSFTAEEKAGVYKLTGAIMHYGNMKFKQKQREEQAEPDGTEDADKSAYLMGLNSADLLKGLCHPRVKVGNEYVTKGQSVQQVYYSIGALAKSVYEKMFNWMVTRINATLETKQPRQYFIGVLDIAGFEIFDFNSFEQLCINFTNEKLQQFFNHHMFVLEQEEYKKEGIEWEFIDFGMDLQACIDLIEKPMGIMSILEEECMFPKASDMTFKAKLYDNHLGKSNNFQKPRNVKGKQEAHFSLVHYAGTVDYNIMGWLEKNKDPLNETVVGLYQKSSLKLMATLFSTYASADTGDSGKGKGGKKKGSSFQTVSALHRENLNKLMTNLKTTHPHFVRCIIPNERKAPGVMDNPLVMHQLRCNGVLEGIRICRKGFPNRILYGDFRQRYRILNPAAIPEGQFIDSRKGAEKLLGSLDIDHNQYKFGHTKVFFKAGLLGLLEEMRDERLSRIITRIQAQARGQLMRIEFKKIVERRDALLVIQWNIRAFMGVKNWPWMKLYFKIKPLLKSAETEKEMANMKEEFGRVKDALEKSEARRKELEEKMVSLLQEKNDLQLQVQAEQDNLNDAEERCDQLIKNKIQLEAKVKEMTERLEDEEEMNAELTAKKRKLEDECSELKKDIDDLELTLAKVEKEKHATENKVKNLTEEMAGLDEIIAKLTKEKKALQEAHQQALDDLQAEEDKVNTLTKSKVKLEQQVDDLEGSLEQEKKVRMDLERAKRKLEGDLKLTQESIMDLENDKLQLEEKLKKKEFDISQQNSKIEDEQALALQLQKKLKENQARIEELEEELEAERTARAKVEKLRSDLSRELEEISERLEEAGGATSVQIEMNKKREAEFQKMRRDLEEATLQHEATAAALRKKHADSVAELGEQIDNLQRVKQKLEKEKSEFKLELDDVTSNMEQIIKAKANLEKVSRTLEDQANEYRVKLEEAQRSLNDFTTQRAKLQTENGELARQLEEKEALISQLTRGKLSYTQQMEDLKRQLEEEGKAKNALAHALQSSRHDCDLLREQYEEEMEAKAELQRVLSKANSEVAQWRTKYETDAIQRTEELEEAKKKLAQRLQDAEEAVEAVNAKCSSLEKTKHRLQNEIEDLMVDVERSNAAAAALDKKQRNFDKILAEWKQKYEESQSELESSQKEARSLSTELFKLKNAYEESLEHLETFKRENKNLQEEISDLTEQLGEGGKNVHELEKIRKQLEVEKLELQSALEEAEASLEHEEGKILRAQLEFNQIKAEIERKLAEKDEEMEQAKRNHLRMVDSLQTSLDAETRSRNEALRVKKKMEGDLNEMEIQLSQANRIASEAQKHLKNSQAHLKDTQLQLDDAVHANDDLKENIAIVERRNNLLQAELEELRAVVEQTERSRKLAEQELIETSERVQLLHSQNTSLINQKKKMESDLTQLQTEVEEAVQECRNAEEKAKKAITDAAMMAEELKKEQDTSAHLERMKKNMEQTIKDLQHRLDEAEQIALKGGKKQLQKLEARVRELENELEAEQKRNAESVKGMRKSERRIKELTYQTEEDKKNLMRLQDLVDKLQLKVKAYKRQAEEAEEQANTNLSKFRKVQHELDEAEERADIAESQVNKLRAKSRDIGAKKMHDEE",
  "test": "cell-based or functional assay",
  "data": [
    {"binder": "FSSLLKKRDAFRRDAKLE", "note": "[peptide 302A]", "values": [
      {"measurement": "force at intermediate pCa (scaled to force at pCa 4.5), mouse, 50 uM peptide, fold of control", "value": "~2", "unit": "x control"},
      {"measurement": "force at pCa 5.9 (scaled to force at pCa 4.5), mouse, 50 uM peptide, fold of untreated", "value": "~3 x (fold of untreated force)"}
    ]}
  ]
}
